According to PMC11672753:

Chain of S15-HDEL (human) (heavy, as listed by the source, chain 1 of 2): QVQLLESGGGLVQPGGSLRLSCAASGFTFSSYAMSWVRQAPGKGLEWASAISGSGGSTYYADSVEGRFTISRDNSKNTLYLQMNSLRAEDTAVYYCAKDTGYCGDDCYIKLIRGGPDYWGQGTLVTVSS
Chain of S15-HDEL (human) (light, as listed by the source, chain 2 of 2): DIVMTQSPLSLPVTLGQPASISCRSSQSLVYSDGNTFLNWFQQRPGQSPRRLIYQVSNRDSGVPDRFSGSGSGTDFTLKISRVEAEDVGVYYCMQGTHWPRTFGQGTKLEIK
Chain of S15-FX (human) (heavy, as listed by the source, chain 1 of 2): as the sequence (heavy, as listed by the source, chain 1 of 2) above
Chain of S15-FX (human) (light, as listed by the source, chain 2 of 2): as the sequence (light, as listed by the source, chain 2 of 2) above

With “FcγRIIIa-dimer, biotinylated (from UniProt P08637 17-254) (receptor)” the NK cell activation (CD107 and IFNγ expression) by antigen-bound antibody, against the WT plant antibody (S15-HDEL (human)) was 3 fold and the NK cell activation (CD107 and IFNγ expression) by antigen-bound antibody, against the WT plant antibody (S15-FX (human)) was 3 fold.
